According to publication PMC12850475:

Experiments:
Protein A (SpA) [1] = biological target: Protein A (SpA) (UniProt P38507); assay: SPR; Protein A amine-coupled to a CM5 chip (channel 2, 122 RU); antibodies eluted by pH (50 mM sodium acetate pH 3.0) as analyte at 12.5 and 25 µg/mL in HBS-P; qualitative; percent able to bind calculated from a standard curve; triplicate
Protein A (SpA) [2] = biological target: Protein A (SpA) (UniProt P38507); assay: SPR

human Immunoglobulin G purified from human blood plasma (antibody)
percentage of antibody still able to bind (Protein A (SpA) [1]): 46.7% | percentage of antibody still able to bind (Protein A (SpA) [2]): 74.8%
